In the DeepSol protein solubility set:

Assay: soluble on expression in E. coli; label from the status in PepcDB or PDB records

Sequence	soluble on expression in E. coli
MGHHHHHHSHMLVLRSGLTKALASRTLAPQVCSSFATGPRQYDGTFYEFRTYYLKPSNMNAFMENLKKNIHLRTSYSELVGFWSVEFGGRTNKVFHIWKYDNFAHRAEVRKALANCKEWQEQSIIPNLARIDKQETEITYLIPWSKLEKPPKEGVYELAVFQMKPGGPALWGDAFERAINAHVNLGYTKVVGVFHTEYGELNRVHVLWWNESADSRAAGRHKSHEDPRVVAAVRESVNYLVSQQNMLLIPASFSPLK	not soluble
MNGGSSIKVLGLVGSPKVDGNTAKMVDAILEGAAENGAETVIYNLASLDIKGCDACHRCQETGCCAIDDDMQELYRQIEEADAVVLGSPVYMWQMTAQTKLLIDRMTAFLKPNFSSRLDHKKLILVFTQGIPDRDAFNSYFEYTAGVLYYLGFDVLETIVAAGTDNLEVAFRPRLLEKSRELGKLISASNPVSPRYRRALEHHHHHH	not soluble
MSLNTPQSAIIPDHAQAGIFIEADFAANRLNDIKAACRASLDALTALKARFPDDILGLTIAFGSKAWATFGHTDEGSEIKPFSEMGNGLAPSTQHDMSIHIQSFRQNAAYALAQSVLGAFGDSICVASEEHGLRLYQDRGLDGFVDGTENPQGDENVREVAIIPEGKPDAGGSYVLLQKYLHDLKKWDAVPVAEQEASVGRGKETDDEFGRDVRLPDSHLGRVNLKENGVGLKIVRRSLPFGKISGEHGLMFTAYCRTLHNIEAQLLSMFGDTDGKTDLLLRHLSAAVSGGYYYAPSVERLQNLEGGSHHHHHH	soluble
DTEGKAHNEQAESIELEGDRIYKITLKDGLKFSDGTPIKAENFVKTWNYAVANDQLNASFFEGIKGFKEGVKELEGLKVVDDKTFTVELDQPESDFPSRLGYSAFFALPDIAFDDMAAFGENPVSSGPYKLAEWNHNESLTIVPNEEYQGDRKAKNDGVKFVFYASQDAAYSDLLAGNLDVLDQVPDSAFATYKDELGDRAVNQPAAVFQSFTIPEKLEHFSGEEGALRRAAISHAINREEITKTIFQDTRTPAKDFSSPVVDGYKEGLKGSEVVKFDSAKAKELWAQADKISKFTGEFTIAYNSDGGHQSWVDAVANQLKNNLGIAASGKPYPDFKSLRDEVTNHTITGAFRTGWQGDYPLLGNFLQPLYATNASSNDGQYSNPAFDAKLEEAAGAKSVEEGLKLYQEAEEILFKDLPAIPLWYANVNGGSSDKVSNVTFNWKSVAAYEQITKG	not soluble
MSLGGSAMYHAQLGREYHEKALKYRSLAMRSLAHSGTSHSLDLHGATVREAKTIVRERVAAWWAKEADTSPNSIRPFVIVTGRGNHSIGLEARLLPAIVRLLQQDHWRFDAEHGQITVYGINRHSKEGHHHHHH	soluble
MERKSPSGKKFRSKPQLARYLGGSMDLSTFDFRTGKMLMSKMNKSRQRVRYDSSNQVKGKPDLNTALPVRQTASIFKQPVTKITNHPSNKVKSDPQKAVDQPRQLFWEKKLSGLNAFDIAEELVKTMDLPKGLQGVGPGCTDETLLSAIASALHTSTMPITGQLSAAVEKNPGVWLNTTQPLCKAFMVTDEDIRKQEELVQQVRKRLEEALMADMLAHVEELARDGEAPLDKACAEDDDEEDEEEEEEEPDPDPEMEHV	soluble
DITERHAREQKLREERAVIQQALDALDEPLFVTDIDGRLKHCNHRALELTGNTEETAVGTPITALFPDEERETIADAVDDALRTGRTTITASLCLDSGQQQRYEFRAHSLTDLDNNTAGLVILGQDVS	not soluble
MADNPASSSSQQLLALRVMRLARPKFAPVDGFSHDPVDPTGFGELLAGKVSEISKESRQDLPIGEYLIAPQMFENIYLGETFTFYVNVVNESEKTVSSVSLKCELQTSTQRVVLPCSVQDATIESSKCEGQVISHEVKEIGQHILICSVNYKTSNGENMYFRKFFKFPVSKPIDVKTKFYSAENQDVYLEAQIENTSNANMFLEKVELDPSQHYNVTSIAHEDEFGDVGKLLKPKDIRQFLFCLTPADVHNTLGYKDLTSIGKLDMSWRTSMGEKGRLQTSALQRIAPGYGDVRLSVEKTPACVDVQKPFEVSCRLYNCSERALDLQLRLEQPSNRHLVFCSPSGVSLGQLPPSQHVDFSLNVFPVTVGIQSISGIRITDTFTKRIYEHDDIAQIFVS	not soluble
MGSDKIHHHHHHMKMVTKLSIVLGLIATLVLSGCQKHDTHEEMPHYAATTPFREDTSILEPYVCQIRAIRHIEVRSLEKGYLTHIFIDEGQWVKKGQPMFKIMPNVYQAELLTAEAEAQNVNIEYLNTKALADKNIVSANELALAKAKLDKANAQVNLAKTHLGFTDIRAPFDGITDHLAVRIGSLLDEDDLLTELSDIAHLWVYFNVPEAKYLDFIRREKGKTNEKVQLRMANGEIYEHTGVIETIVGDFYNTSGNIQFRALFENPDRVLRHGQTGTILMTVPYPNAMLIPQKATFEIMDKIYLYVVNKEEKVEQRLIQIEAELPHMFIVKSGVNDGERILIEGMRKVSPGDKVMIDLKPPQEVRSELMKLYTE	not soluble
MAHHHHHHMRGEHELVIPGEQRRDWCSTDACENRLCRKKFSLLVSKQHCQWCGRIFCDNCAPCTATYGGRRLRRCNSCKFPAVFRSLRNLRTGKRDGSVARLIMSFLDSRSINALMHSCYTSLSEFNVGDYVYYESITDRFPTFFEGAMIGKGGFGSVYKCEDRSYPCRRRVALKVITKASVVTYRSWKKIVTELEIMQDVDHHNVAKLLEVLQTPHHLVIVMEAGDGGSLMQAWRLAKEYKYDVEVLVANVVLQVAEGLDYLYHKKGIVHRDIKLENIVLSHDFKRVMIIDFGLAEYVKQCETQLFVPCGTAGYTSPENIRAVVERRRVYEALGETMHLADMYSLGVVAYVLLCGHMPVATRCFSSLYQNMLKGIRCVGPHWANVSDDAKSLVESLVKTNSFERATVAVIREHPFIQAKAPLIVEIVQRHMHKQTETERREVKEWVYVEPLSDHWDMIEVETVSDEENRGLALRKGSSTFGRVGFMNRLKSVVWD	not soluble
ATHYSVADRWGNAVSVTYTINASYGSAASIDGAGFLLNNEMDDFSIKPGNPNLYGLVGGDANAIEANKRPLSSMSPTIVLKNNKVFLVVGSPGGSRIITTVLQVISNVIDYNMNISEAVSAPRFHMQWLPDELRIEKFGMPADVKDNLTKMGYQIVTKPVMGDVNAIQVLPKTKGSVFYGSTDPRKEF	soluble
VALLGLILPYFVSRWWARTQSYTKKGIHNVTASNFVSNLVNYKPSEIVTTDLILHWLSFAHEFKQFFPDLQPTDFEKLLQDHINRRDSGKLNNAKFRIVAKCHSLLHGLLDIACGFRNLDIALGAINTFKCIVQAVPLTPNCQILQLPNVDKEHFITKTGDIHTLGKLFTLEDAKIGEVLGIKDQAKLNETLRVASHIPNLKIIKADFLVPGENQVTPSSTPYISLKVLVRSAKQPLIPTSLIPEENLTEPQDFESQRDPFAMMSKQPLVPYSFAPFFPTKRRGSWCCLVSSQKDGKILQTPIII	not soluble
MGSEFSIDQKRYLEGFATGVTAARAARGSLPAGSAASPSGPDAIHHQAQDRVTASGKKLNDQEKWKREQHPFDAYARLKQQAKDNAAPKPADNFRWRYYGLFYVAPAQTSYMCRLRIPNGILTSWQMAGLAYLADTLADGYAHVTTRANLQMREIAPKDAVQLLQGIESLGLWARGSGADNIRNVTGSATAGIDPQELIDTRAYARDWHFYILNERALFGLPRKFNVAFDGGGLIPTLEDTNDIAFQAVTIGDGHGVAPGVYFRLALGGITGHKDFARDTGVIVAPDEATEVADAIVRVFIEHGDRTDRNKARLKYVLDAFGFDKYLELVEDKLGRKLIRVPAEAAAPRPAQDRAAHLGVHPQQQAGMNWIGVRLATGHLTSVQMRGLAEIARSFGDGDLRLTVWQNLLISGVPDARVTDATAAIEALGLAITASPLRAGLIACTGASGCRFAAAHTKETAEAIAQYCEPRVPLDTPINIHLTGCHNSCAQHFISDIGLIGAKVAVSDEDSVEGFHIHVGGGFGVDAAIGTEVLRDVKQDDAPRVIERMLQTYLARRASPAETFLAFVRRQDAAALQQLFAYEQSPETVA	not soluble
GPGSMASTSGPASLEEAALASLGNYSPEQLQMAETALRAVLMEKVQALAAEHGDAFIQSLVQKEIARTRKMETELANVKKRLGVQERCVDSMRMDVRKVKAQEEKSKYICQNLQETARRREQLTEKMQPEMEAYRSDVRERVSENVQSIWAECEKRRERVETVEAEVTELEAGLAHKKETFERSFAEFQDGLKGRTAEYQELIVAYQEATKEVELIEAQLMLVRRERQSVETTRAALQQQLEVYEKQFDGFAEAVMKPEDVEALAKRQHDQAQMRITELEAEKTNVHQQRLQMDKELTDLRAKHASLKREMQQLEKAKTAAEKKCRQAQQSRQEKK	not soluble
MRGSHHHHHHTDPALRATQKNFVELRNVTKRFGSNTVIDNINLTIPQGQMVTLLGPSGCGKTTILRLVAGLEKPSEGQIFIDGEDVTHRSIQQRDICMVFQSYALFPHMSLGENVGYGLKMLGVPRAELKARVKEALAMVDLEGFEDRFVDQISGGQQQRVALARALILKPKVLLFDEPLSNLDANLRRSMRDKIRELQKQFDITSLYVTHDQSEAFAVSDTVLVMNKGHIMQIGSPQDLYRQPASRFMASFMGDANLFPATFSDGYVDIYGYHLPRPLHFGTQGEGMVGVRPEAITLSDRGEESQRCVIRHVAYMGPQYEVTVEWHGQEILLQVNATRLQPDVGEQYYLEIHPYGMFVLADAAGLCGR	soluble
DFVHIMTPYLILDGELLHALKFAAERGVDVIIIMPGIPDKKSAYYLAKTYYPTLLASGVKIYEYTPGFIHAKVFVSDNSRAVVGTINLDYRSLYHHFECATYLYGTSSVLDIEEDFQATKDQCHRVSTTDVKNLPFYQKTLGLLARLVAP	not soluble
MGSDKIHHHHHHMKILLYLEAEQFLSHSGIGRAMKHQQRALDLMGIDWTKNPEDDYDILHLNTYGFSSWKMLKKAKKAGKKVIFHGHSTKEDFQNSFIGSNIAAPFFKQYLMHFYRAADLVITPTDYSASLLRSYGIKCPILPISNGIDLTKYSRSEAKEQAFREYFSLKSDQKVVVTAALYFKRKGIDDFIKVAERMPDVTFIWFGYQNLWTIPGWIRRIVKKNHPKNVLFPGYIKGDIFEGAMSSADAFFFPSREETEGIVVLEALASHQKTVVRDIPVYHGWLDSTCVSMATDVEGFVNQLQDVLDGKVDKTKEAYQVAESRTIEKVAQQLADAYQQTLEL	not soluble
MRALREKTSMSQGVEFNRLMLDMRAMQMDAMSAPKPVSGAQEAGASSFADMLGQAVNKVAQTQQASSQLANAFEVGKSGIDLTDVMISSQKASVSFQALTQVRNKLVQAYQDIMQMPV	not soluble
MGSDKIHHHHHHMGQTTFSRQKDGQPDTAYHDSETTYHYSETTYNYAYLDESTKGMIRRAILKAIAIPGHQVPFGSREMPMPYGWGTGGIQITASIIGPNDTLKVIDQGSDDTTNAVSIRAFFRKVTNVPTTEKTSEATLIQTRHRIPETPLKEDQILVFQVPIPEPLRFIEPRETETCKMHALEEYGVMQVKLYEDIARFGHIATTYAYPVKVNHRYVMDPSPIPKFDNPKMDMMPALQLFGAGREKRVYAVPPYTVVESLDFDDHPFTIQQWDKPCELCGARDSFLDEVVMDDDGTRMFVCSDTDYCQLRQSQGEKTS	not soluble
MSLEVIKHDGPGRLGVIRLEPPVQTPALAGVDFTISPFNSYFNPKEYHDYDFNLAPSIPLSYYTPDEVIEKALKRIETVDYSKFNTFYFPALKRDKYYPRFVELIEENDFDAIYIGNSKVMIKDYRGFVATLRILREKFPNAVLITDLEPFFYPLAVYLGVDAFDVRSLKIYSYEGLGFTPFSPVIWDRPNDPIEFAREMIKIIKIAIQEGKLRYLVENFLPTVMNVGILRIADKEHGDYLEKYTPVHDKTVVFISEHSISRPEVFRWRKRIEERFEPPKGIDLLLIFPCSAKKPYSRSRSHMMYRKVMKEALGEKVHRVHELVVTSPYGVVPREWEWLAKYDIVVTGHWSESEVRFAGELLAQTIEKYPDIPIVAHVEGGYREAVKYAMELVNRDVIFTAVGSSTISKESLDKLKKTLKEFDLRDEGHHHHHH	not soluble
